From PMC2793005, “Dissecting the Role of Critical Residues and Substrate Preference of a Fatty Acyl-CoA Synthetase (FadD13) of Mycobacterium tuberculosis” (PLoS ONE, 2009)

Biological target: the molecule itself
Test: SEC

B1: Fatty Acyl-CoA Synthetase FadD13 (Rv3089) of Mycobacterium tuberculosis, N-terminal 6x histidine tag (enzyme)
chain: MKNIGWMLRQRATVSPRLQAYVEPSTDVRMTYAQMNALANRCADVLTALGIAKGDRVALLMPNSVEFCCLFYGAAKLGAVAVPINTRLAAPEVSFILSDSGSKVVIYGAPSAPVIDAIRAQADPPGTVTDWIGADSLAERLRSAAADEPAVECGGDDNLFIMYTSGTTGHPKGVVHTHESVHSAASSWASTIDVRYRDRLLLPLPMFHVAALTTVIFSAMRGVTLISMPQFDATKVWSLIVEERVCIGGAVPAILNFMRQVPEFAELDAPDFRYFITGGAPMPEALIKIYAAKNIEVVQGYALTESCGGGTLLLSEDALRKAGSAGRATMFTDVAVRGDDGVIREHGEGEVVIKSDILLKEYWNRPEATRDAFDNGWFRTGDIGEIDDEGYLYIKDRLKDMIISGGENVYPAEIESVIIGVPGVSEVAVIGLPDEKWGEIAAAIVVADQNEVSEQQIVEYCGTRLARYKLPKKVIFAEAIPRNPTGKILKTVLREQYSATVPK
notes: also called native FadD13; NP; not shown: His6, N-terminal, kept
- stoichiometry N: 2
